Laboratory results as given in the supplement of paper PMC9170038.

Tested on: MS2 coat protein
Experiment: apparent KD of MS2 coat protein; designed switch direction (-1 OFF switch, 1 ON switch): -1; higher = weaker reporter binding
In short: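 Designed RNA switches were transcribed on Illumina chips by stalled E. coli RNA polymerase and titrated with SNAP-549-labelled MS2 coat protein from 0.7 or 1.5 nM, doubling to 3 µM. Step length ran from 0.8–1.5 h at the lowest concentration to 10–20 min at the highest. The apparent KD is the median over clusters for each design, from curve-fitted normalised cluster fluorescence.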

[1] = Eterna round: R95, input ligand: FMN 200 uM
[2] = Eterna round: R95, input ligand: microRNA oligo, concentration not stated
[3] = Eterna round: R95, input ligand: none
[4] = input ligand: microRNA oligo, concentration not stated

Row | Sequence | apparent KD of MS2 coat protein (input ligand: FMN 200 uM) | apparent KD of MS2 coat protein (input ligand: none) | apparent KD of MS2 coat protein [2] | further results
1 | ACUUAUUGAGGAUAUACAUUAAAAUACAUGAGGAUCACCCAUGUUCUUCAAUGUAUAUAUGUAGAAGGCAGAAGAA [JL-ex5-4.29 Malcolm mod] (Eterna round: R97, puzzle: Exclusion 5) | 57.6 nM | 22.2 nM |  | 
2 | AAUAACUGAGGAUAUACUAUAAUAUGAAUAAAAUAAAUAAAACAUGAGGAUCACCCAUGUAGAAGGCAGAAUAA [JMF's Not so obvious solution 9] (puzzle: Exclusion 2) |  |  | 17.8 nM | apparent KD of MS2 coat protein [1]: 23.2 nM; apparent KD of MS2 coat protein [3]: 24.1 nM
3 | ACAAGCUUAAAAGGUGAUAACAUGAGGAUCACCCAUGUUCGUCUUAUAAAGAUCCUAUGUCGAAAGACAUAGGAUCA [Sensor 3, v1 - 68] (puzzle: Sensor v3, turn-off variant 1) |  |  | 39.4 nM | apparent KD of MS2 coat protein [1]: 18.8 nM; apparent KD of MS2 coat protein [3]: 20.9 nM
4 | GUUUGAUGAGGAUAUCGAGGUUAGUACAUGAGGAUCACCCAUGUUAUCCAGGUGUCGGUUCGAGAAGGUAUUGGAC [LRO-Ex5-15] (puzzle: Exclusion 5) |  |  | 18.6 nM | 
5 | AGAGAGUCAGGAUAUCGGAGGGAGAGGAGAGGAGAGAGGGACGAGAAGGGACAUGAGGAUCACCCAUGUAGGUG [JR_Exclusion4)Sub017] (puzzle: Exclusion 4) |  |  | 437 nM | apparent KD of MS2 coat protein [1]: 263 nM; apparent KD of MS2 coat protein [3]: 663 nM
6 | UAAUGUGCGAGAGGAUAUCGUGUACAAAGUACACGAGAAGGCUUCACAUGAGGAUCACCCAUGUAUCGAGGUGAAACACCUUGA [Omei Exc(NG)1 Bv3] (Eterna round: R96, puzzle: Exclusion NG 1) | 448 nM | 212 nM |  | apparent KD of MS2 coat protein [4]: 254 nM
7 | AUACCACGAGGAUAUCGACUAUACCACAUGAGGAUCACCCAUGUUAUCCAUGUUUCGUUUCGAGAAGGCGUGGGUU [JR_E5_Sub073] (puzzle: Exclusion 5) |  |  | 32.3 nM | 
8 | UUCUUACAUGAGGAUCACCCAUGUCAGGAUAUCUCCACACUGCGCUUGCGCAGUGUAUAGAGAAGGGACAGGCU [JL ViennaUCT Aner mod 5] (puzzle: Exclusion 1) |  |  | 40.7 nM | 
9 | UGAUCACAUGAGGAUCACCCAUGUCAGGAUAUCUACAUUGAAGCUUCGGCUUCAAUGUAGAGAAGGGAUAUAAU [E1/5-B1] (Eterna round: R97, puzzle: Exclusion 1) | 203 nM | 82.8 nM |  | 
10 | CUUCUCAGAGGAUAUCACGGUAAUAACAUGAGGAUCACCCAUGUGGAAUUCGUGUCCCUGUGAGAAGGCUGAGAAG [Bezavere] (puzzle: Exclusion 5) |  |  | 12.2 nM | apparent KD of MS2 coat protein [1]: 33.2 nM; apparent KD of MS2 coat protein [3]: 16 nM
11 | CCGGAAAUGUAGGAUAUAGGAGUCGAUAGACACCUAGAAGGGCAUACAUGAGGAUCACCCAUGUGUCCUACCGG [Fiskers Ex 6 - 80] (puzzle: Exclusion 6) |  |  | 11.8 nM | 
12 | AAGAAGCAAGGAUAUACAGAGGAGAGUAAAGCAAGAGGAGAACAUGAGGAUCACCCAUGUAGAAGGUGCAGAGA [JR_Exclu2_Sub018] (puzzle: Exclusion 2) |  |  | 20.3 nM | apparent KD of MS2 coat protein [1]: 40.3 nM; apparent KD of MS2 coat protein [3]: 29.1 nM
13 | ACAAGCUUGUAAUGAUAGAACAUGAGGAUCACCCAUGUAAAUGGAAGAACCAAUUAGAUAAGAUAAACUCGUCUUAU [JR_STOV1_Sub002] (Eterna round: R97, puzzle: Sensor, turn-off variant 1) | 59.1 nM | 69.5 nM |  | 
14 | CUAAAUCAUGUAGGAUAUGCGUAGCAAAGCUAUGCAGAAGGACAUGAGGAUCACCCAUGUCAUUCCGUCUGGAGACAGACGGGA [Mat - Exclusion NG 1 - Mod of JL - D55] (Eterna round: R96, puzzle: Exclusion NG 1) | 186 nM | 30.8 nM |  | apparent KD of MS2 coat protein [4]: 21.6 nM
15 | UUGCUACCUUGGUACUCUACAAGCUUUUUGCUCGUUUUAACAUGAGGAUCACCCAUGUCUAGUGGAUCUGAUCGGGU [JL ViennaUCT Isreen mod 3] (puzzle: Sensor v3, turn-off variant 2) |  |  | 197 nM | apparent KD of MS2 coat protein [1]: 87.4 nM; apparent KD of MS2 coat protein [3]: 77.5 nM
16 | UGAUCUAGGCGAGGAUAUACAUGAGGAUCACCCAUGUAAUGGUGACAUGCGUACAUGUCACCUAUGUAGAAGGCGCCUAGAUCU [JL ENG2 3.55] (Eterna round: R96, puzzle: Exclusion NG 2) | 19.6 nM | 13 nM |  | apparent KD of MS2 coat protein [4]: 9 nM
17 | ACAUGAGGAUCACCCAUGUCCGUCUGGUCUGUCUCGGCUGUCGAGGAUAUAGCUCGGUAUCCGCGCUAGAAGGCGGGAGUCGGC [Aenatbe mod 96] (Eterna round: R96, puzzle: Exclusion NG 3) | 26.4 nM | 31.9 nM |  | apparent KD of MS2 coat protein [4]: 17.3 nM
18 | GUGUACAGAGGAUAUACACGAGUAGUUACGAAAGUAACUAUACAUGAGGAUCACCCAUGUAGAAGGCUGUACAC [Dot plot directed v2] (puzzle: Exclusion 2) |  |  | 14.5 nM | 

Row | Sequence | apparent KD of MS2 coat protein (input ligand: FMN 200 uM) | apparent KD of MS2 coat protein (input ligand: none) | apparent KD of MS2 coat protein [2] | further results
19 | GAUGGAGAGCAGGAUAUCUUGGGUAAGCAUCAUAGAGAAGGGCUCACAUGAGGAUCACCCAUGUGGUCCAAGAA [Usbiridi] (Eterna round: R96, puzzle: Exclusion 6) | 57 nM | 18.3 nM |  | apparent KD of MS2 coat protein [4]: 15.1 nM
20 | CCAUGUUAGCAGGAUAUGCUAUUAAUCUUUUAUGCAGAAGGGCUUACAUGAGGAUCACCCAUGUAUUAAGUCUU [JR_E6_Sub076] (puzzle: Exclusion 6) |  |  | 11.9 nM | 
21 | UGCUGACAAGGAUAUACAUGAGGAUCACCCAUGUUGGUUCAGCGACGAUAGUCGCAAUGUAGAAGGUGUCAGCA [E3/9-C1] (Eterna round: R97, puzzle: Exclusion 3) | 135 nM | 236 nM |  | 
22 | GAUUAGCAAGCGAGAUCCCACAUGAGGAUCACCCAUGUGCUCGUCUUAUAAAGUACUGUGACGAAAGUCACGGUACA [Mat - Sensor, turn-off var - Eli Mod - D11] (Eterna round: R97, puzzle: Sensor, turn-off variant 1) | 17.2 nM | 14.8 nM |  | 
23 | UUGGUUGUGGUAGGAUAUCCGUUGGAAACCGUUGGAGAAGGACCACAGUCACUGGGUCUUUGUUUGGUGGAGUGGAAGAACCAU [pwkr exNG1 F6.19] (Eterna round: R96, puzzle: Exclusion NG 1) | 1020 nM | 349 nM |  | apparent KD of MS2 coat protein [4]: 210 nM
24 | UCUGUUUUGCGAGGAUAUCGACCAUUCCUCUUAACAUGAGGAUCACCCAUGUGCUAAUCCUACAACGAGAAGGCGCUCAUACUC [JR_ExcNG2_Sub066] (Eterna round: R96, puzzle: Exclusion NG 2) |  |  |  | apparent KD of MS2 coat protein [4]: 195 nM
25 | UAAAUUAUAGUAAGGAUAUCAGUCGCGAAAGUGGCUGAGAAGGUACAUGAGGAUCACCCAUGUGAAAUAAGAAU [Mod of Zala 17 - Jieux - Brourd's Mod of Exclusion 4] (Eterna round: R97, puzzle: Brourd's mod of Exclusion 4) | 25.7 nM | 20 nM |  | 
26 | CCUGCGGACAAAGGAUAUUGCGGUGGCCGGCUCAGUAAAUCUAGCCAACAUGAGGAUCACCCAUGUAAGAAGGUUGCCGUUGGU [Qudice] (Eterna round: R96, puzzle: Exclusion NG 2) |  |  |  | apparent KD of MS2 coat protein [4]: 17 nM
27 | GCGUGACAUGAGGAUCACCCAUGUGAGGAUAUCUGGAUAAUCUUUAUUUUAGAUAUCCAGAGAAGGCACAUGCU [Ex1-3: 3Z] (puzzle: Exclusion 1) |  |  | 170 nM | 
28 | AUCUAGUCAGGAUAUACGAACCGAUGAAUCGGACGGAACGAACAUGAGGAUCACCCAUGUAGAAGGGACACUCA [Candy Rainbow 2] (puzzle: Exclusion 2) |  |  | 142 nM | 
29 | AAACAGCGAGGAUAUGCAGACGCUCCUUCCUCACGUCAAGGACAUGAGGAUCACCCAUGUAGAAGGCGCACAAC [Isriteti] (Eterna round: R97, puzzle: Exclusion 2) | 116 nM | 76 nM |  | 
30 | UUGAUGUGAGGAUAUAUUUUUUUUUUUCUUUAUGUUUUAUAACUUGAGGAUCACCCAAGUAGAAGGCGCUACGU [JR_Ex2_Sub064] (Eterna round: R97, puzzle: Exclusion 2) | 51.7 nM | 30.5 nM |  | 
31 | UAUUAGUGAGGAUAUGAGUCGUAGAACAAUAGUACUACGUCUCAGAAGGUACAUGAGGAUCACCCAUGUUCCUC [Fiskers Ex 4 Super Stable 44 mod 32] (puzzle: Exclusion 4) |  |  | 18.9 nM | 
32 | AAAUAGGCAGGAUAUACAUGAGGAUCACCCAUGUAAAUUUUUCGUUUAACUUGAAUGUGUAGAAGGGCCAUAAA [Ex3 #54] (Eterna round: R97, puzzle: Exclusion 3) | 27.4 nM | 26.8 nM |  | 
33 | CUUUUGUGAGGAUAUUUGUAGUAAAUAAAUAAAAUUACUACUGAGAAGGCACAUGAGGAUCACCCAUGUUCCUC [salish99_ex4_r3_042] (Eterna round: R96, puzzle: Exclusion 4) | 200 nM | 28.6 nM |  | apparent KD of MS2 coat protein [4]: 24.4 nM
34 | ACAAGCUUUUUGUUCGUCUUAUAAUAAUAAAUAAAGAUAACAUGAGGAUCACCCAUGUAAAGAAGACGGCCUCAUGU [Sesor Array 20 - Jieux - Sensor v3, turn-off variant 2] (puzzle: Sensor v3, turn-off variant 2) |  |  | 233 nM | apparent KD of MS2 coat protein [1]: 785 nM; apparent KD of MS2 coat protein [3]: 1120 nM
35 | GGGCCCGGUGUGAGGAUAUGCCCGGGUAAACCCGGGUAGAAGGCACAUGAGGAUCACCCAUGUAAGCCGGGCCC [-43, -40.9 kcal, A 23%, 5cbis-0] (Eterna round: R97, puzzle: Brourd's mod of Exclusion 4) | 12.8 nM | 17.7 nM |  | 
